Results reported in patent publication US20060204507A1 (LUDWIG INSTITUTE FOR CANCER RESEARCH, published 2006).

Molecular target: T1, HLA-Cw3 on target cells
T1 construct: also called HLA-Cw*0304
Assay: inferred from FW/92 T cell recognition of peptide-pulsed target cells with lactacystin (ELISPOT)

binding result: binds
Binder: LAMPFATPM [Nonapeptide consisting of amino acids 13-21 of SEQ ID NO: 4]
